Measured values published in article doi:10.1101/2023.10.09.561572.
pKd: −log10 of the molar value.

Molecular target: T1, SERF2 (Homo sapiens) (UniProt P84101)
T1 sequence: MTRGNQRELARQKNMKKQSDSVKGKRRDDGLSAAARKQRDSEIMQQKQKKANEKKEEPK
Assay: fluorescence polarization
Conditions: FP: 20 mM NaPi pH 7.4, 100 mM KCl, 25 C (20-100 nM FAM-RNA or 200 nM AF488-SERF2); NMR: same buffer, 4 C

TERRA60 rG4
pKd: > 6.00

polyG RNA
pKd: > 6.00
